B1: endogenous PDPK1 [not stated (endogenous; cell line of this co-IP not named)] / endogenous PID1 [not stated (endogenous; cell line of this co-IP not named)] (parent)
chain 1: MFSLPLSLPLCEDTAFLPSKCCSSHKTIKQARTLIMIFLASGTHFQTMLKSKLNVLTLKKEPLPAVIFHEPEAIELCTTTPLMKTRTHSGCKVTYLGKVSTTGMQFLSGCTEKPVIELWKKHTLAREDVFPANALLEIRPFQVWLHHLDHKGEATVHMDTFQVARIAYCTADHNVSPNIFAWVYREINDDLSYQMDCHAVECESKLEAKKLAHAMMEAFRKTFHSMKSDGRIHSNSSSEEVSQELESDDG
chain 2: MARTTSQLYDAVPIQSSVVLCSCPSPSMVRTQTESSTPPGIPGGSRQGPAMDGTAAEPRPGAGSLQHAQPPPQPRKKRPEDFKFGKILGEGSFSTVVLARELATSREYAIKILEKRHIIKENKVPYVTRERDVMSRLDHPFFVKLYFTFQDDEKLYFGLSYAKNGELLKYIRKIGSFDETCTRFYTAEIVSALEYLHGKGIIHRDLKPENILLNEDMHIQITDFGTAKVLSPESKQARANSFVGTAQYVSPELLTEKSACKSSDLWALGCIIYQLVAGLPPFRAGNEYLIFQKIIKLEYDFPEKFFPKARDLVEKLLVLDATKRLGCEEMEGYGPLKAHPFFESVTWENLHQQTPPKLTAYLPAMSEDDEDCYGNYDNLLSQFGCMQVSSSSSSHSLSASDTGLPQRSGSNIEQYIHDLDSNSFELDLQFSEDEKRLLLEKQAGGNPWHQFVENNLILKMGPVDKRKGLFARRRQLLLTEGPHLYYVDPVNKVLKGEIPWSQELRPEAKNFKTFFVHTPNRTYYLMDPSGNAHKWCRKIQEVWRQRYQSHPDAAVQ

Variants of: B1
Test: co-immunoprecipitation (IP: HA, IB: PID1), band densitometry
Conditions: with endogenous PID1 [not stated (endogenous; cell line of this co-IP not named)]; IGF-1 + (insulin -); read off a plot

Row | response | Variant
1 | 0.06 | chain 2 MARTTSQLFDAVPIQSSVVLCSCPSPSMVRTQTESSTPPGIPGGSRQGPAMDGTAAEPRPGAGSLQHAQPPPQPRKKRPEDFKFGKILGEGSFSTVVLARELATSREYAIKILEKRHIIKENKVPYVTRERDVMSRLDHPFFVKLYFTFQDDEKLYFGLSYAKNGELLKYIRKIGSFDETCTRFYTAEIVSALEYLHGKGIIHRDLKPENILLNEDMHIQITDFGTAKVLSPESKQARANSFVGTAQYVSPELLTEKSACKSSDLWALGCIIYQLVAGLPPFRAGNEYLIFQKIIKLEYDFPEKFFPKARDLVEKLLVLDATKRLGCEEMEGYGPLKAHPFFESVTWENLHQQTPPKLTAYLPAMSEDDEDCFGNFDNLLSQFGCMQVSSSSSSHSLSASDTGLPQRSGSNIEQYIHDLDSNSFELDLQFSEDEKRLLLEKQAGGNPWHQFVENNLILKMGPVDKRKGLFARRRQLLLTEGPHLYYVDPVNKVLKGEIPWSQELRPEAKNFKTFFVHTPNRTYYLMDPSGNAHKWCRKIQEVWRQRYQSHPDAAVQ [chain 2 Y9F Y373F Y376F]

Same assay, conditions: with endogenous PID1 [not stated (endogenous; cell line of this co-IP not named)]; insulin + (IGF-1 -); read off a plot

Row | response | Variant
2 | 0.06 | chain 2 MARTTSQLFDAVPIQSSVVLCSCPSPSMVRTQTESSTPPGIPGGSRQGPAMDGTAAEPRPGAGSLQHAQPPPQPRKKRPEDFKFGKILGEGSFSTVVLARELATSREYAIKILEKRHIIKENKVPYVTRERDVMSRLDHPFFVKLYFTFQDDEKLYFGLSYAKNGELLKYIRKIGSFDETCTRFYTAEIVSALEYLHGKGIIHRDLKPENILLNEDMHIQITDFGTAKVLSPESKQARANSFVGTAQYVSPELLTEKSACKSSDLWALGCIIYQLVAGLPPFRAGNEYLIFQKIIKLEYDFPEKFFPKARDLVEKLLVLDATKRLGCEEMEGYGPLKAHPFFESVTWENLHQQTPPKLTAYLPAMSEDDEDCFGNFDNLLSQFGCMQVSSSSSSHSLSASDTGLPQRSGSNIEQYIHDLDSNSFELDLQFSEDEKRLLLEKQAGGNPWHQFVENNLILKMGPVDKRKGLFARRRQLLLTEGPHLYYVDPVNKVLKGEIPWSQELRPEAKNFKTFFVHTPNRTYYLMDPSGNAHKWCRKIQEVWRQRYQSHPDAAVQ [chain 2 Y9F Y373F Y376F]

Same assay, conditions: with endogenous PID1 [not stated (endogenous; cell line of this co-IP not named)]; no growth factor (IGF-1 -, insulin -); read off a plot

Row | response | Variant
3 | 0.07 | chain 2 MARTTSQLFDAVPIQSSVVLCSCPSPSMVRTQTESSTPPGIPGGSRQGPAMDGTAAEPRPGAGSLQHAQPPPQPRKKRPEDFKFGKILGEGSFSTVVLARELATSREYAIKILEKRHIIKENKVPYVTRERDVMSRLDHPFFVKLYFTFQDDEKLYFGLSYAKNGELLKYIRKIGSFDETCTRFYTAEIVSALEYLHGKGIIHRDLKPENILLNEDMHIQITDFGTAKVLSPESKQARANSFVGTAQYVSPELLTEKSACKSSDLWALGCIIYQLVAGLPPFRAGNEYLIFQKIIKLEYDFPEKFFPKARDLVEKLLVLDATKRLGCEEMEGYGPLKAHPFFESVTWENLHQQTPPKLTAYLPAMSEDDEDCFGNFDNLLSQFGCMQVSSSSSSHSLSASDTGLPQRSGSNIEQYIHDLDSNSFELDLQFSEDEKRLLLEKQAGGNPWHQFVENNLILKMGPVDKRKGLFARRRQLLLTEGPHLYYVDPVNKVLKGEIPWSQELRPEAKNFKTFFVHTPNRTYYLMDPSGNAHKWCRKIQEVWRQRYQSHPDAAVQ [chain 2 Y9F Y373F Y376F]

— paper PMC10147665
